The source of these data is patent publication US20230242666A1.

The test deals with chondroitin sulfate proteoglycan 4 (CSPG4) (human) (UniProt Q6UVK1). As to the kind of experiment: cell-based or functional assay.
UniProt Q6UVK1, sequence (Q6UVK1 30-2322): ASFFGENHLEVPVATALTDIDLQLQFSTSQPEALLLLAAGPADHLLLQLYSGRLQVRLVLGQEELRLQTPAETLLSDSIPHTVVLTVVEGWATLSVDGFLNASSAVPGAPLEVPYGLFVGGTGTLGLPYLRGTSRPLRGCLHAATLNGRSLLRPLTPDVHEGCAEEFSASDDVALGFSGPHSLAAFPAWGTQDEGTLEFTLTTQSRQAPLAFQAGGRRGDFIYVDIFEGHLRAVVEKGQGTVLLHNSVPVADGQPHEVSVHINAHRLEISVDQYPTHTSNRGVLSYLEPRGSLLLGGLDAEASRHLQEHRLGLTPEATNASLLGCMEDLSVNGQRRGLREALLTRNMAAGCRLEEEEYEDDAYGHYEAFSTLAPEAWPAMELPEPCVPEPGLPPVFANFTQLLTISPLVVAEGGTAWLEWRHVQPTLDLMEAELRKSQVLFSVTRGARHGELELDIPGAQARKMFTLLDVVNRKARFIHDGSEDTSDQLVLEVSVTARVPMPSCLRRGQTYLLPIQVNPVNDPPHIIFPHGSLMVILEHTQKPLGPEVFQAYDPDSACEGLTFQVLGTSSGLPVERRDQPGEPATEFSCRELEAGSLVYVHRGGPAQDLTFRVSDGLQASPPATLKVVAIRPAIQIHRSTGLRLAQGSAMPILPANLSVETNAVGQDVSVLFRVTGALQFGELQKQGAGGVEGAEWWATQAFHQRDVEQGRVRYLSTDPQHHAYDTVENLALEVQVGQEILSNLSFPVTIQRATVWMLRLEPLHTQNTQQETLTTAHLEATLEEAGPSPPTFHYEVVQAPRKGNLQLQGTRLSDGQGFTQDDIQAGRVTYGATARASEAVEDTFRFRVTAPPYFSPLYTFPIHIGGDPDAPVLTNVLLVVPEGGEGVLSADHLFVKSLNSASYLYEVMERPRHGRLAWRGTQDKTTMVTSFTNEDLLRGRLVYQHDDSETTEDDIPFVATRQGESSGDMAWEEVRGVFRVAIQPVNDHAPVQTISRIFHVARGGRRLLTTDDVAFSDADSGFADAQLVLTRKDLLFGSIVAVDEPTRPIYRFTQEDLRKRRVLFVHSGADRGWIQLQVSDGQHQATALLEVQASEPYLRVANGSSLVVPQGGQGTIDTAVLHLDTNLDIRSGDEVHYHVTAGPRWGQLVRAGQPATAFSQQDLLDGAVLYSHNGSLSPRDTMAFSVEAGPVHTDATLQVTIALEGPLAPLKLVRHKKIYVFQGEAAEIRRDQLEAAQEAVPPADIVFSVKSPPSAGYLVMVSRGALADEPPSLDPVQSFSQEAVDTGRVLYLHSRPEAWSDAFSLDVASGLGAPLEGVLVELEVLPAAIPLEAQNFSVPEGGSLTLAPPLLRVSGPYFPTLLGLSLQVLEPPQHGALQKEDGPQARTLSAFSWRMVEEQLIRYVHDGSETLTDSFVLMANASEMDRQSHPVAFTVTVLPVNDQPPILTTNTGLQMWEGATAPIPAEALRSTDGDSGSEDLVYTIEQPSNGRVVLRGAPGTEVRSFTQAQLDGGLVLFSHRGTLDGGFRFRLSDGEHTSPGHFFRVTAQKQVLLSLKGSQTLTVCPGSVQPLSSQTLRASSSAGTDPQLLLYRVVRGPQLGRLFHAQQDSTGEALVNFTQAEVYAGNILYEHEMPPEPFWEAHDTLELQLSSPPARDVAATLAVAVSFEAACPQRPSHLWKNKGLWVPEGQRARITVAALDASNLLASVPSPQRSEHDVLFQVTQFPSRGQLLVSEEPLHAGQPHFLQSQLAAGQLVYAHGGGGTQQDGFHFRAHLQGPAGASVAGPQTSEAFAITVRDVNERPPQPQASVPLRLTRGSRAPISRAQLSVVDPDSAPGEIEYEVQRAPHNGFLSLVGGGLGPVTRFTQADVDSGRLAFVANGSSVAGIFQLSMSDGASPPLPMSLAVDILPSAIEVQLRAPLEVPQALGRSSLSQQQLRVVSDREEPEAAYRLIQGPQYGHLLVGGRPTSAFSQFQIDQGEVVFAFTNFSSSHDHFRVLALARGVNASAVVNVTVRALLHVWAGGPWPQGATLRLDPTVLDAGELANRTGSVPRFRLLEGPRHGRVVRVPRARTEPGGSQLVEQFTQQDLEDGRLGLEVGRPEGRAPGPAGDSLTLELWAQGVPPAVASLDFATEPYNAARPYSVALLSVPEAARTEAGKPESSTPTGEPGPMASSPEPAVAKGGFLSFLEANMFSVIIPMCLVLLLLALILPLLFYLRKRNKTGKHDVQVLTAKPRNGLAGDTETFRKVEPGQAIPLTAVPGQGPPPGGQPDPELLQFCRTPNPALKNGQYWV

B1: h763.74(#2)CD28 CAR (protein, not shown: large carriers)
chain: MDIKLTQSPSILSASVGDRVIITCRASQTIYKNLHWYQQKPHRSPRLLIKYGSDSISGIPSRFSGSGSGTEYTLTISSLQPDDFAIYYCLQGYSTPWTFGGGTKLTVLGGGGGSGGGGSGGGGSGGGGSQVQLVESGGGLVQPGGSLRLSCTASGYTFTDYSMHWVRKTPGKGLKWVGWINTATGEPTYADDFKGRFTISLDTSKNTVYLQMNSLRAEDTATYFCFSYYDYWGQGTTVTVSS
The molecule B1 had a residual tumor cells after coculture of CAR-T cells with CSPG4+ WM115 melanoma cells of 11%.

B2: 763.74(A)4-1BB CAR (protein, not shown: small tags and cut ends)
chain: MQVKLKESGPELKKPGETVKISCKASGYTFTDYSMHWVKKTPGKGLKWLGWINTATGEPTYADDFKGRFAISLETSARTVYLQINNLRNEDTATYFCFSYYDYWGQGTTVTVSSGGGGSGGGGSGGGGDIKLSQSPSILSVTPGETVSLSCRASQTIYKNLHWYQQKSHRSPRLLIKYGSDSISGIPSRFTGSGSGTDYTLNINSVKPEDQGIYYCLQGYSTPWTFGGGTKLEIK
As for B2, the residual tumor cells after coculture of CAR-T cells with WM115 (CSPG4+) melanoma cells, E:T 1:5 worked out at 43.6%.

B3: 763.74(A)CD28 CAR (protein, not shown: small tags and cut ends)
chain: B2 chain
As for B3, the residual tumor cells after coculture of CAR-T cells with WM115 (CSPG4+) melanoma cells, E:T 1:5 was 2.2%.

B4: h763.74(#5)CD28 CAR (protein, not shown: large carriers)
chain: MEIVMTQSPSTLSASVGDRVIITCRASQTIYKNLHWYQQKPGKSPKLLIKYGSDSISGVPSRFSGSGSGTEYTLTISSLQPDDFATYYCLQGYSTPWTFGQGTKLTVLGGGGGSGGGGSGGGGSGGGGSQVQLVESGGGLVQPGGSLRLSCTASGYTFTDYSMHWVRKAPGKGLEWVGWINTATGEPTYADDFKGRFTISLDTSKNTVYLQMNSLRAEDTAVYFCASYYDYWGQGTLVTVSS
For the molecule B4, the residual tumor cells after coculture of CAR-T cells with CSPG4+ WM115 melanoma cells was 10%.
